Laboratory results as given in doi:10.1101/2023.07.04.547698 (bioRxiv, 2023).

Legend:
[1] = molecular target: T1, human tau fibrils (HT40, 2N4R) (Homo sapiens, UniProt P10636-8); experiment: flow cytometry on fibril-coated beads
[2] = molecular target: T1, human tau fibrils (HT40, 2N4R); experiment: flow cytometry on fibril-coated beads, competition with monomer
human 0N3R tau fibrils = human 0N3R tau fibrils (Homo sapiens, UniProt P10636-2); experiment: far-Western, overlay or dot blot
[3] = molecular target: human α-synuclein fibrils (Homo sapiens (Human)., UniProt P37840); experiment: flow cytometry on fibril-coated beads, competition with monomer

Row | Binder | binding result [2] | binding result [3] | further results
1 | ATA1 (scFv, V domains shown) VH: QVQLQQSGPGLLKPSETLSLTCVISGDSVSSNSATWNWIRQSPSRGLEWLGRTYFRSKWYNDYAVSVKSRITINPDTSKNQFSLQLNSATPEDTAVYYCARQMDEGVGFDFWGQGTLVTVSS VL: EIVLTQSPATLSLSPGERATLSCRASQSVSSYLAWYQQKPGQAPRLLIYDASNRATGIPARFSGSGSGTDFTLTISSLEPEDFAVYYCQQRSNWPPTFGQGTRLEIK |  |  | EC50 [1]: 6.3 nM
2 | ATA1.458.5 (scFv, V domains shown) VH: QVQLQQSGPGLLKPSETLSLTCVISGDSVSSNFVTWNWIRQSPSRGLEWLGRTYFRRKWYNDYAVSVKSRITINPDTSKNQFSLQLNSATPEDTAVYYCARQMDEGVGFDFWGQGTLVTVSS VL: EIVLTQSPATLSLSPGERATLSCRASQSVSSYLAWYQQKPGQAPRLLIYDASNRATGIPARFSGSGSGTDFTLTISSLEPEDFAVYYCQQRHSWPPTFGQGTRLEIK | binds |  | 
3 | ATA1.459.3 (scFv, V domains shown) VH: QVQLQQSGPGLLKPSETLSLTCVISGDSVSSNSVTWNWIRQSPSRGLEWLGRTYFRRRWYNDYAVSVKSRITINPDTSKNQFSLQLNSATPEDTAVYYCARQMDKGVGFDFWGQGTLVTVSS VL: EIVLTQSPATLSLSPGERATLSCRASQSVSSYLAWYQQKPGQAPRLLIYDASNRATGIPARFSGSGSGTDFTLTISSLEPEDFAVYYCQQRHNWPPTFGQGTRLEIK |  |  | binding result (human 0N3R tau fibrils): binds
4 | ATA1.458.3 (scFv, V domains shown) VH: QVQLQQSGPGLLKPSETLSLTCVISGDSVSTNDVTWNWIRQSPSRGLEWLGRTYFRRKWYNDYARSVKSRITINPDTSKNQFSLQLNSATPEDTAVYYCARQMDEGVGFDFWGQGTLVTVSS VL: EIVLTQSPATLSLSPGERATLSCRASQSVSSYLAWYQQKPGQAPRLLIYDASNRATGIPARFSGSGSGTDFTLTISSLEPEDFAVYYCQQRHNWPPTFGQGTRLEIK | binds |  | 
5 | H2.3 (antibody, V domains shown) VH: QVQLQQSGPGLVKPSQTLSLTCAISGDSVSSHSASWNWIRQSPSRGLEWLGRTYYRGKWKTDYAVSVKSRIIINPDTSKNQFSLQLDSVTPEDTAVYFCTRATRGASDYWGQGTLVTVSS VL: not shown |  | binds | 
6 | H2.4 (antibody, V domains shown) VH: QVQLQQSGPGLVKPSQTLSLTCAISGDSVSSHSASWNWIRQSPSRGLEWLGRTYYRSKWHNDYAASVKGRIIINPDTSKNQFSLQLDSVTPEDTAVYFCTRATRGASDYWGQGTLVTVSS VL: not shown |  | binds | 
